The text below walks through data of patent US20110311523A1.

This experiment concerns the target human platelet derived growth factor-α receptor (PDGFRα) (human) (UniProt P16234). Briefly: cell-based or functional assay.

human platelet derived growth factor-α receptor (PDGFRα) (human), sequence (P16234 24-1089): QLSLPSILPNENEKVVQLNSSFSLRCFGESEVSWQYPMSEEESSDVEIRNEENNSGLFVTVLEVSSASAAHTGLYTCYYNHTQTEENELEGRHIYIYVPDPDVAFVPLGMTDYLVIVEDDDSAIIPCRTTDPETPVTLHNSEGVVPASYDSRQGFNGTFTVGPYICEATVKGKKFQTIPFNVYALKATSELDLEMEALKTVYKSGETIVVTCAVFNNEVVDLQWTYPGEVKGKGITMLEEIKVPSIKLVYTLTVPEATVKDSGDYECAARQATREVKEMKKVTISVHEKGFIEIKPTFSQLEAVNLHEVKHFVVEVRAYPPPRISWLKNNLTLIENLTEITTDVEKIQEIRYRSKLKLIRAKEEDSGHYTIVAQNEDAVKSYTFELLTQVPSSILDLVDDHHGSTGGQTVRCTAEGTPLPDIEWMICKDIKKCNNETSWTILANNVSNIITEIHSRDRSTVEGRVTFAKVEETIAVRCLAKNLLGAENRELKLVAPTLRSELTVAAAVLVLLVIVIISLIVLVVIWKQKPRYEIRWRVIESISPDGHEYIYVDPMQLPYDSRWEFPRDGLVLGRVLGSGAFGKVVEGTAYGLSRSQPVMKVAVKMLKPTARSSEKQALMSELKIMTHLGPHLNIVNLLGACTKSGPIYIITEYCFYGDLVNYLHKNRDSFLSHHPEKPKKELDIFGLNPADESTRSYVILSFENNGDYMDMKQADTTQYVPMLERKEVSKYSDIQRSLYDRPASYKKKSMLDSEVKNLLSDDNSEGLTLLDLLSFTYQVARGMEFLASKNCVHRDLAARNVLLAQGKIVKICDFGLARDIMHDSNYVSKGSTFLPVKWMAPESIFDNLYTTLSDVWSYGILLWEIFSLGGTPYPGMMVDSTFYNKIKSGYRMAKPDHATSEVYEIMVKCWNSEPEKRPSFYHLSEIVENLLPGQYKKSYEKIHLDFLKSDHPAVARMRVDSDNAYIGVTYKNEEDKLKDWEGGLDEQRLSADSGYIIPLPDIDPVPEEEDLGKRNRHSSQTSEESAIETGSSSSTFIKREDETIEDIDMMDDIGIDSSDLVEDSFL

With “IMC-3G3, a humanized PDGFRα blocking antibody (ImClone Inc.)”, the decrease in HCMV entry (pp65 positive cells) turned out to be 45%.

Consider “PDGF-AA (from UniProt P04085 87-211) (ligand)”, for which the decrease in HCMV entry (pp65 positive cells) worked out at 30%.
